# Laboratory results reported in patent publication US20080032931A1.
# Target: HV62, synthetic peptide corresponding to residues 33 to 94 of human VAMP-2 (human) (UniProt P63027)
substance,measurement,value
"enterokinase-nicked recombinant single-chain TeNT, wild type L chain (enzyme)",Initial rate of cleavage of HV62 (nmol · min^-1mg^-1),22.7
